Test system: Escherichia coli TOP10
Assay: shrunken log2 fold change of peptide-encoding DNA abundance (4.5 h post-induction vs induction); higher = less antimicrobial activity (less host growth inhibition)
Conditions: time post-induction: 4.5 h; library: site-saturation at positions 5, 18, 19, 20
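Also: peptides expressed intracellularly from a pBAD plasmid library in pooled LB shake-flask culture, induced with 0.3% L-arabinose, DNA abundance read by NGS, three biological replicates, DESeq2 with apeglm shrinkage.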

| Sequence | shrunken log2 fold change |
| --- | --- |
| RRIRSRPPRLPRPRPRPTGKPRP | 0.274 |
| RRIRIRPPRLPRPRPRPECCPRP | 0.0559 |
| RRIRARPPRLPRPRPRPTVGPRP | 0.794 |
| RRIRNRPPRLPRPRPRPIKCPRP | -0.0141 |
| RRIRRRPPRLPRPRPRPSRRPRP | -0.0701 |
| RRIRARPPRLPRPRPRPKMCPRP | -0.0542 |
| RRIRLRPPRLPRPRPRPQKQPRP | 0.17 |
| RRIRQRPPRLPRPRPRPYSQPRP | -0.195 |
| RRIRQRPPRLPRPRPRPLWDPRP | -0.0887 |
| RRIRWRPPRLPRPRPRPWWLPRP | 0.162 |
| RRIRCRPPRLPRPRPRPVWHPRP | 0.127 |
| RRIRPRPPRLPRPRPRPTASPRP | 0.259 |
| RRIRARPPRLPRPRPRPKCHPRP | 0.161 |
| RRIRQRPPRLPRPRPRPIITPRP | -1.01 |
| RRIRLRPPRLPRPRPRPAKAPRP | 0.271 |
| RRIRQRPPRLPRPRPRPPEKPRP | 0.917 |
| RRIRIRPPRLPRPRPRPARDPRP | -0.169 |
| RRIRIRPPRLPRPRPRPENYPRP | -0.405 |
| RRIRMRPPRLPRPRPRPFIRPRP | -0.47 |
| RRIRARPPRLPRPRPRPDEKPRP | 0.447 |
| RRIRHRPPRLPRPRPRPMDKPRP | -0.123 |
| RRIRYRPPRLPRPRPRPTKQPRP | 0.0156 |
| RRIRDRPPRLPRPRPRPAGSPRP | 0.19 |
| RRIRTRPPRLPRPRPRPMWKPRP | 0.00922 |
| RRIRKRPPRLPRPRPRPICRPRP | 0.0069 |

| Sequence | shrunken log2 fold change |
| --- | --- |
| RRIRERPPRLPRPRPRPAVEPRP | 0.108 |
| RRIRERPPRLPRPRPRPLAHPRP | -0.368 |
| RRIRGRPPRLPRPRPRPINVPRP | -0.248 |
| RRIRRRPPRLPRPRPRPMHKPRP | 0.299 |
| RRIRSRPPRLPRPRPRPKFTPRP | -0.436 |
| RRIRKRPPRLPRPRPRPEYEPRP | 0.0698 |
| RRIRCRPPRLPRPRPRPEISPRP | -0.0399 |
| RRIRARPPRLPRPRPRPEITPRP | 0.784 |
| RRIRHRPPRLPRPRPRPMAIPRP | 0.0143 |
| RRIRQRPPRLPRPRPRPTQLPRP | 0.375 |
| RRIRMRPPRLPRPRPRPFMYPRP | -0.219 |
| RRIRDRPPRLPRPRPRPFIQPRP | -0.238 |
| RRIRARPPRLPRPRPRPRNMPRP | 0.263 |
| RRIRMRPPRLPRPRPRPPGSPRP | 0.904 |
| RRIRRRPPRLPRPRPRPAKNPRP | 0.279 |
| RRIRRRPPRLPRPRPRPYSTPRP | -0.295 |
| RRIRYRPPRLPRPRPRPGMVPRP | 2 |
| RRIRRRPPRLPRPRPRPCGHPRP | -0.0448 |
| RRIRSRPPRLPRPRPRPRNKPRP | -0.0701 |
| RRIRTRPPRLPRPRPRPVWGPRP | 0.368 |
| RRIRMRPPRLPRPRPRPEDWPRP | 3.63 |
| RRIRLRPPRLPRPRPRPYTLPRP | -0.143 |
| RRIRIRPPRLPRPRPRPHRSPRP | 0.0394 |
| RRIRQRPPRLPRPRPRPYNKPRP | -0.403 |
| RRIRARPPRLPRPRPRPALSPRP | 0.628 |

| Sequence | shrunken log2 fold change |
| --- | --- |
| RRIRSRPPRLPRPRPRPNPCPRP | -0.574 |
| RRIRTRPPRLPRPRPRPIQPPRP | 0.00206 |
| RRIRNRPPRLPRPRPRPYSLPRP | -0.965 |
| RRIRARPPRLPRPRPRPRAIPRP | 0.358 |
| RRIRVRPPRLPRPRPRPMFTPRP | -0.0798 |
| RRIRNRPPRLPRPRPRPCTRPRP | -0.184 |
| RRIRTRPPRLPRPRPRPGSAPRP | 0.362 |
| RRIRARPPRLPRPRPRPRRWPRP | 0.739 |
| RRIRQRPPRLPRPRPRPDLHPRP | 0.00152 |
| RRIRNRPPRLPRPRPRPCFHPRP | -0.503 |
| RRIRHRPPRLPRPRPRPNARPRP | -0.0163 |
| RRIRQRPPRLPRPRPRPFMGPRP | -0.0627 |
| RRIRYRPPRLPRPRPRPLYLPRP | -0.992 |
| RRIRFRPPRLPRPRPRPPFYPRP | -0.462 |
| RRIRCRPPRLPRPRPRPPKGPRP | 0.405 |
| RRIRQRPPRLPRPRPRPEPDPRP | 0.271 |
| RRIRPRPPRLPRPRPRPYWCPRP | -0.272 |
| RRIRERPPRLPRPRPRPLKWPRP | 0.159 |
| RRIRPRPPRLPRPRPRPGVWPRP | 0.54 |
| RRIRPRPPRLPRPRPRPRMTPRP | 0.288 |
| RRIRDRPPRLPRPRPRPEFMPRP | 0.419 |
| RRIRQRPPRLPRPRPRPKKNPRP | 0.0205 |
| RRIRGRPPRLPRPRPRPVGCPRP | 0.74 |
| RRIRTRPPRLPRPRPRPAPWPRP | 0.254 |
| RRIRMRPPRLPRPRPRPKTCPRP | 0.12 |

| Sequence | shrunken log2 fold change |
| --- | --- |
| RRIRPRPPRLPRPRPRPISCPRP | -0.0606 |
| RRIRPRPPRLPRPRPRPLGFPRP | 0.49 |
| RRIRERPPRLPRPRPRPPRFPRP | 0.26 |
| RRIRWRPPRLPRPRPRPGKQPRP | 0.151 |
| RRIRGRPPRLPRPRPRPWEEPRP | -0.0105 |
| RRIRDRPPRLPRPRPRPVPPPRP | 0.453 |
| RRIRKRPPRLPRPRPRPAYWPRP | 0.424 |
| RRIRHRPPRLPRPRPRPFWRPRP | -0.0343 |
| RRIRKRPPRLPRPRPRPQAHPRP | 0.266 |
| RRIRMRPPRLPRPRPRPNCDPRP | 0.194 |
| RRIRERPPRLPRPRPRPLNHPRP | -0.443 |
| RRIRHRPPRLPRPRPRPFFYPRP | -0.4 |
| RRIRQRPPRLPRPRPRPTMSPRP | 0.0272 |
| RRIRDRPPRLPRPRPRPQPKPRP | 0.026 |
| RRIRARPPRLPRPRPRPRDPPRP | 0.948 |
| RRIRYRPPRLPRPRPRPQKEPRP | -0.245 |
| RRIRDRPPRLPRPRPRPILNPRP | -0.184 |
| RRIRLRPPRLPRPRPRPFEYPRP | -0.0121 |
| RRIRSRPPRLPRPRPRPNSEPRP | -0.262 |
| RRIRMRPPRLPRPRPRPQCVPRP | 0.039 |
| RRIRSRPPRLPRPRPRPVMSPRP | 0.11 |
| RRIRFRPPRLPRPRPRPGPEPRP | 0.103 |
| RRIRDRPPRLPRPRPRPVFQPRP | -0.134 |
| RRIRHRPPRLPRPRPRPAEYPRP | 0.034 |
| RRIRVRPPRLPRPRPRPMKQPRP | -0.0165 |

| Sequence | shrunken log2 fold change |
| --- | --- |
| RRIRHRPPRLPRPRPRPTMEPRP | -0.0987 |
| RRIRTRPPRLPRPRPRPTENPRP | -0.293 |
| RRIRSRPPRLPRPRPRPKGIPRP | -0.357 |
| RRIRFRPPRLPRPRPRPMQEPRP | 0.0233 |
| RRIRLRPPRLPRPRPRPWWRPRP | 0.197 |
| RRIRDRPPRLPRPRPRPQWYPRP | -0.45 |
| RRIRFRPPRLPRPRPRPYRRPRP | -0.506 |
| RRIRYRPPRLPRPRPRPFNRPRP | -0.0175 |
| RRIRSRPPRLPRPRPRPQAHPRP | -0.0418 |
| RRIRYRPPRLPRPRPRPKGNPRP | -0.423 |
| RRIRERPPRLPRPRPRPDKSPRP | -1.19 |
| RRIRTRPPRLPRPRPRPNADPRP | -0.00181 |
| RRIRGRPPRLPRPRPRPPHDPRP | 1.27 |
| RRIRPRPPRLPRPRPRPMNVPRP | -0.0376 |
| RRIRDRPPRLPRPRPRPREKPRP | 0.342 |
| RRIRSRPPRLPRPRPRPQWSPRP | -0.176 |
| RRIRSRPPRLPRPRPRPHDCPRP | -0.0708 |
| RRIRRRPPRLPRPRPRPGLLPRP | 0.0882 |
| RRIRWRPPRLPRPRPRPFLWPRP | 0.0802 |
| RRIRCRPPRLPRPRPRPKRSPRP | 0.235 |
| RRIRHRPPRLPRPRPRPSGKPRP | -0.0266 |
| RRIRQRPPRLPRPRPRPLGMPRP | -0.218 |
| RRIRCRPPRLPRPRPRPCFPPRP | -0.321 |
| RRIRNRPPRLPRPRPRPACEPRP | 0.172 |
| RRIRTRPPRLPRPRPRPLDNPRP | -0.396 |
